# Data as given in patent US20070185028A1, “Compositions and methods for treatment of protein misfolding and protein aggregation diseases” (priority 2004, published 2007).
# Entries after “also recorded” stand apart in the source; their conditions may differ.
# Key:
# transthyretin (TTR) = target: T1, transthyretin (TTR) (Homo sapiens, UniProt P02766); experiment: Transthyretin fibrillation ThT assay; format: biochemical; details: for effect on TTR fibril formation, overall: five αB crystallin peptides and control
# T1 construct: purchased Sigma-Aldrich
# Method: The effect of the five αB crystallin peptides ST, DR, HG, LT, and ER on TTR fibrillation was measured using the ThT fluorescence assay (FIG. 26). The formation and inhibition of TTR fibrils was qualitatively verified by fluorescence and bright-field microscopy. The concentration of the peptides was varied relative to TTR to establish a concentration curve. In addition, the effect of a control neuropeptide (AT1) with no TTR fibril inhibition activity was measured and compared to the effect of the αB crystallin peptides on TTR fibril formation. The ThT fluorescence of 16 μM TTR alone incubated at 37° C. for 4 hrs, increased from ˜15,000 to ˜45,000 RFU. Addition of 3.2 μM αB crystallin peptides, ST, DR, LT, and HG decreased the ThT fluorescence of TTR by 15-70%. In contrast, 3.2 μM ER had no effect on TTR fibril formation. Increasing the concentration of the ER peptide to 16 μM decreased the ThT fluorescence of TTR by 60%. The negative control peptide AT1 had no effect on TTR fibrillation even at a concentration as high as 160 μM. All five αB crystallin peptides inhibited TTR fibrillation at sub-stoichometric and stoichometric concentrations (3.2 μM and 16 μM).
# The Thioflavin T (ThT) fluorescence of TTR in the presence of varying concentrations of αB crystallin peptides and controls was measured. […] When the concentration of the peptides was increased to 16 μM (1:1::peptide:TTR), the αB crystallin peptides ST, DR, HG, LT and ER decreased the ThT fluorescence by 8-72%. When the concentration of the peptides was increased further to 80 μM ([…]), all of the five αB crystallin peptides ST, DR, HG, LT, and ER decreased the ThT fluorescence by 40-70%. […] The formation and inhibition of TTR fibrils was verified microscopically.
# Transthyretin fibrillation ThT assays were performed as described previously. Hurshman et al., Biochemistry 43:7365-81, 2004; O'Nuallain and Wetzel, Proc Natl Acad Sci USA 99:1485-90, 2002. Peptides were dissolved to 2 mM in 0.25% DMSO and diluted accordingly, while TTR was dissolved in 200 mM KCl, 2 mM EDTA, 5 mM PBS, 200 mM sodium acetate, pH 4.4. For the 5::peptide:TTR assay, 10 μL of 160 μM peptide was mixed with 10 μL of 32 μM TTR, and 1 μL of 1 mM ThT. For the 1:1::peptide:TTR assay, 10 μL of 32 μM peptide was mixed with 10 μL of 32 μM TTR and 1 μL of 1 mM ThT. For the 1:5::peptide:TTR assay, 10 μL of 6.4 μM peptide was mixed with 10 μL of 32 μM TTR and 1 μL of 1 mM ThT. ThT fluorescence was measured using a Perkin Elmer Victor^3 V plate reader. Assays were performed in 384-well fluorescence plates in duplicates or triplicates. Samples were incubated at 37° C. ThT fluorescence was measured continuously for 150 minutes. The effect of the peptides and APS was calculated as percentage fibril formation relative to TTR alone (100%) at the end of 150 minutes.
# bovine βH crystallin = experiment: αB crystallin protein pin array with βH crystallin; format: binding; details: unheated βH crystallin, 23° C.; similar maxima pre-heated 45° C.
# Excerpt: Synthesis of Pins, binding and detection of peptides binding to ligand proteins. The αB crystallin protein pin array was used to measure the interaction between peptides and chaperone target proteins including bovine βH crystallin, human γD crystallin, equine alcohol dehydrogenase (ADH) and porcine citrate synthase (CS) as described (FIG. 12). Ghosh and Clark, Protein Sci 14: 684-95, 2005.
# Refer to the methods section for detailed protocols. The absorbance corresponding to the blue coloration in each well was measured at λ=450 nm and plotted against the amino acid sequence of the corresponding peptide in that well (FIGS. 13 and 14). Wells containing peptides that have strong interactions with target proteins are dark blue and wells containing peptides that have weak or no interaction with target proteins are light blue or clear.
# The purity of the target proteins used in the pin array assays, bovine βH crystallin, human γD crystallin, equine alcohol dehydrogenase (ADH) and porcine citrate synthase (CS) were determined to be >90% by SDS-PAGE. In addition, primary antibodies for each target protein were specific to that target protein and consequently contaminating proteins that may bind to the peptides will not be detected. Eighty-four sequential and overlapping peptide fragments corresponding to residues 1-175 of human αB crystallin were synthesized employing a simultaneous peptide synthesis strategy developed by Geysen, called Multipin Peptide Synthesis (Mimotopes, San Diego, Calif.). Geysen, Southeast Asian J Trop Med Public Health 21: 523-33, 1990; Chin et al., J Org Chem 62: 538-539, 1997. Peptides were immobilized on derivatized polyethylene pins arranged in a microtiter ELISA plate format. Each peptide was eight amino acids in length and consecutive peptides were offset by two amino acids. All peptides were bound covalently to the surface of the plastic pins. The first peptide was 1MDIAIHHP8 and the last peptide was 168PAVTAAPK175 for human αB crystallin.
# Ghosh and Clark, Protein Sci 14: 684-95, 2005. […] The intensity of the blue color in the wells was measured at 450 nm using an ELISA plate-reader (BioTek, Winooski, Vt.). The intensity of the blue color (plotted on the X-axis) was a measure of the interaction between αB crystallin peptides (plotted on the Y-axis) and target proteins. To measure the effect of temperature on the interactions between interactive peptides and the target proteins, the target proteins were heated in a water-bath at 45° C. for fifteen minutes prior to use. Pin arrays are unable to differentiate between monomers, dimers or oligomers of target proteins that exist in solution. Instead, pin arrays are very sensitive detectors of interactions between individual peptides and the entire population (monomers, dimers or oligomers) of specific target proteins that may exist in solution under specific conditions. Each target protein was assayed two to five times. A single pin array was used for all experiments and no change in interactions was observed after more than thirty repetitions. The last three peptides of the protein pin array, 163REEKPAVT170, 165EKPAVTAA172, 167PAVTAAPK174, correspond to the epitope (163REEKPAVTAAPKK175) recognized by the primary antibody for human αB crystallin. A positive reaction is observed for these three peptides in the absence of human αB crystallin as the ligand due to direct binding of the anti-human αB crystallin antibody to these three peptides. The loss of efficiency for the pin array was measured using this assay. The loss of efficiency for the pin array was determined to be <5% by after more than 30 assays.
# Protein pin arrays enabled the identification of interactive sequences necessary for the chaperone activity of human αB crystallin. Interactions between immobilized 8-mer human αB crystallin peptides and unheated and pre-heated βH crystallin, a natural protein constitute of lens cells, were measured as absorbances at λ=450 nm at 23° C. […]
Sequence,"effect on TTR fibril formation, overall (transthyretin (TTR))","absorbance at 450 nm, interaction with βH crystallin (bovine βH crystallin)",further results
DRFSVNLDVKHFS,strong inhibition,–,–
ERTIPITRE,modestly inhibited,–,"decrease in ThT fluorescence of TTR (transthyretin (TTR); 3.2 μM, 16 μM TTR, 37° C.): no effect"
FSVNLDVK [Peptide 38],–,Maximum absorbances,–
HGKHEERQDE,–,–,"effect on TTR fibril formation, overall (transthyretin (TTR); listed as HG): most effective inhibitor; also recorded: strong inhibition"
LTITSSLS [Peptide 66],–,Maximum absorbances,–
LTITSSLSSDGV,partially inhibited,–,–
STSLSPFYLRPPSFLRAP,partially inhibited,–,–
WIRRPFFP [Peptide 5],–,Maximum absorbances,–
